Here are results for four molecules from patent US20110300138A1 (published 2011).

The target in assay [1] is T1, thyroid stimulating hormone receptor (full length human TSHR) (human, UniProt P16473 22-764).
T1 construct: Full length TSHR coated onto plastic tubes (TSHR coated tubes, as in WO2004/050708A2); also called TSH receptor
The assay is described as follows: competitor ^125I-K1-70 IgG, TSHR coated tubes; 1 µg/mL in HBD. How it is done:
(§1) Binding inhibition assays were carried out using TSHR coated tubes as described in WO2004/050708A2. […] After aspiration, the tubes were washed and 100 μL of ¹²⁵I-labelled protein (5×10⁴ cpm) added and incubated for 1 hour at room temperature with shaking. The tubes were then aspirated, washed and counted in a gamma counter. Inhibition of labelled protein binding was calculated as 100×[1−(cpm bound in the presence of test material/cpm bound in the presence of control material)].

In assay [2] the target is T1, thyroid stimulating hormone receptor …. The assay is described as follows: competitor ^125I-K1-70 IgG, TSHR coated tubes; 3 µg/mL in HBD. How it is done: as §1
Assay [3] has the same target. Put plainly: competitor ^125I-K1-70 IgG, TSHR coated tubes; 10 µg/mL in HBD. How it is done:
as §1

Assay [4] has the same target. The assay is described as follows: competitor ^125I-K1-70 IgG, TSHR coated tubes; 30 µg/mL in HBD. How it is done: as §1
Assay [5] shares this target. Put plainly: competitor ^125I-K1-70 IgG, TSHR coated tubes; 0.1 µg/mL in HBD. How it is done:
as §1

For assay [6] the target is unchanged. The assay is described as follows: competitor ^125I-K1-70 IgG, TSHR coated tubes; 0.3 µg/mL in HBD. On the procedure:
as §1

Assay [7] has the same target. The assay is described as follows: competitor ^125I-K1-70 IgG, TSHR coated tubes; 100 µg/mL in HBD. How it is done:
as §1

The target is the same in assay [8]. Put plainly: competitor ^125I-K1-70 IgG, TSHR coated tubes; 0.01 µg/mL in HBD. How it is done: as §1
Assay [9] has the same target. Put plainly: competitor ^125I-K1-70 IgG, TSHR coated tubes; 0.03 µg/mL in HBD. On the procedure:
as §1

Assay [10] shares this target. The assay is described as follows: competitor ^125I-K1-70 IgG, TSHR coated tubes; 0.001 µg/mL in HBD. How it is done:
as §1

For assay [11] the target is unchanged. The assay is described as follows: competitor ^125I-K1-70 IgG, TSHR coated tubes; 0.003 µg/mL in HBD. How it is done: as §1
The target is the same in assay [12]. Put plainly: competitor ^125I-K1-70 IgG, TSHR coated tubes; 1 µg/mL in assay buffer. How it is done: as §1
Assay [13] shares this target. The assay is described as follows: competitor ^125I-K1-70 IgG, TSHR coated tubes; 3 µg/mL in assay buffer. How it is done: as §1
Assay [14] shares this target. Put plainly: competitor ^125I-K1-70 IgG, TSHR coated tubes; 10 µg/mL in assay buffer. How it is done: as §1
Assay [15] has the same target. The assay is described as follows: competitor ^125I-K1-70 IgG, TSHR coated tubes; 30 µg/mL in assay buffer. How it is done: as §1
Assay [16] shares this target. The assay is described as follows: competitor ^125I-K1-70 IgG, TSHR coated tubes; 0.1 µg/mL in assay buffer. How it is done:
as §1

For assay [17] the target is unchanged. The assay is described as follows: competitor ^125I-K1-70 IgG, TSHR coated tubes; 0.3 µg/mL in assay buffer. How it is done: as §1
For assay [18] the target is unchanged. Put plainly: competitor ^125I-K1-70 IgG, TSHR coated tubes; 100 µg/mL in assay buffer. How it is done:
as §1

For assay [19] the target is unchanged. The assay is described as follows: competitor ^125I-K1-70 IgG, TSHR coated tubes; 0.01 µg/mL in assay buffer. On the procedure:
as §1

The target is the same in assay [20]. The assay is described as follows: competitor ^125I-K1-70 IgG, TSHR coated tubes; 0.03 µg/mL in assay buffer. On the procedure: as §1
Assay [21] shares this target. Put plainly: competitor ^125I-K1-70 IgG, TSHR coated tubes; 0.001 µg/mL in assay buffer. How it is done:
as §1

Assay [22] shares this target. The assay is described as follows: competitor ^125I-K1-70 IgG, TSHR coated tubes; 0.003 µg/mL in assay buffer. On the procedure:
as §1

B1: K1-70 IgG (antibody, V domains shown)
VH: EVQLVQSGAEVKKPGQSLKISCKASGYSLTDNWIGWVRQKPGKGLEWMGIIYPGDSDTRYSPSFQGQVTISADKSINTAYLQWSSLKASDTAIYYCVGLDWNYNPLRYWGPGTLVTVSS
VL: QSVLTQPPSVSAAPGQKVTISCSGSSSDIGSNYVSWYQQFPGTAPKLLIYDNNKRPSAIPDRFSGSKSGTSATLGITGLQTGDEADYYCGTWDSRLGIAVFGGGTQLTVLG
notes: Human IgG1 lambda purified from hetero-hybridoma supernatant
In the case of B1, the “Inhibition of binding (%)” value turned out to be 90.4% in assay [1]; 91.7% in [2]; 93.1% in assay [3]; 94.3% in assay [4]; 62.8% in [5]; 82.7% in assay [6]. Further, the “Inhibition of binding (%)” value in assay [7] is 93.6%; in [8], 11.4%; in assay [9] it was 33.6%; in assay [10], -7.6%; in assay [11], 2.2%; in [12], 90.8%. The “Inhibition of binding (%)” value is 90.7% in assay [13]; 92.3% in assay [14]; 93.1% in assay [15]; 87.1% in assay [16]; 89.2% in [17]; 93.8% in assay [18]. Also, the “Inhibition of binding (%)” value in assay [19] is 50.9%; in assay [20], 74.2%; in assay [21], 15.3%; in [22], 24%.

B2: K1-70 Fab (Fab, V domains shown)
VH: B1 VH
VL: B1 VL
For B2, the “Inhibition of binding (%)” value was 89.5% in assay [1]; 90.9% in [2]; 90.6% in assay [3]; 91% in assay [4]; 76.5% in assay [5]; 87.3% in [6]. The “Inhibition of binding (%)” value is 90.8% in assay [7]; 21.6% in assay [8]; 49.6% in assay [9]; -3.6% in assay [10]; 5.6% in assay [11]; 88.3% in assay [12]. In addition, the “Inhibition of binding (%)” value in assay [13] is 89.4%; in [14], 89.8%; in [15], 90.7%; in [16], 87.5%; in [17], 88%; in [18], 91.5%. Moreover, the “Inhibition of binding (%)” value in assay [19] is 64.8%; in [20] it was 81.7%; in [21], 12.2%; in assay [22], 32.7%.

B3: K1-18 IgG (antibody, V domains shown)
VH: EVQLVQSGAEVKKPGESLKISCKGSGYSFTNYWIGWVRQMPGKGLEWMGIIYPYDSDTRYSPSFEGQVTISADKSIRTAYLHWSSLKASDTAMYYCVRPRDGSYPYDAFDIWGQGTMVTVSS
VL: EIVLTQSPGTLSLSPGERATLSCRASQSVSNNYLAWYQQKPGQAPRLLIYGASSRATGIPDRFSGSGSGTDFTLTISRLEPEDFAVYYCQHCGSSLRAFGQGTKVEIKR
notes: Human IgG1 kappa purified from hetero-hybridoma supernatant; it is not part of the secreted protein; also called human monoclonal TSHR autoantibody K1-18 (stimulating)
Take B3: the “Inhibition of binding (%)” value in [1] was found to be 85.8%; in [2], 91%; in assay [3], 92.5%; in [4], 92.2%; in assay [5], 48.6%; in [6], 73.9%. Besides, the “Inhibition of binding (%)” value was 93.5% in [7]; 3.1% in assay [8]; 20% in [9]; -3% in [10]; -2.7% in assay [11]; 89.6% in assay [12]. Also, the “Inhibition of binding (%)” value worked out at 90.5% in [13]; 91.8% in assay [14]; 91.2% in assay [15]; 77.9% in assay [16]; 86.4% in assay [17]; 92.9% in assay [18]. In addition, the “Inhibition of binding (%)” value in assay [19] was 30.2%; in [20], 53.9%; in assay [21], 7.2%; in assay [22] it was 17%.

B4: K1-18 Fab (Fab, V domains shown)
VH: B3 VH
VL: B3 VL
B4: the “Inhibition of binding (%)” value in [1] worked out at 75.6%; in assay [2], 80.5%; in [3], 82%; in assay [4] it was 83.2%; in [5], 38.4%; in [6], 60.9%. For the same molecule, the “Inhibition of binding (%)” value is 83.6% in assay [7]; 1.1% in assay [8]; 10.2% in assay [9]; 0.5% in assay [10]; -3.5% in assay [11]; 78.5% in assay [12]. Also, the “Inhibition of binding (%)” value in assay [13] amounted to 79.4%; in assay [14] it was 81.9%; in [15], 83.3%; in assay [16] it was 62.8%; in assay [17], 71.4%; in assay [18], 86%. In addition, the “Inhibition of binding (%)” value in assay [19] turned out to be 23.7%; in assay [20], 31.3%; in assay [21], 13.8%; in [22] it was 15.2%.
